Reference: the supplement of paper PMC7125110
± gives the standard error. Variants at the floor of the assay were thinned out.

B1: glmS ribozyme (parent)
chain: AUAAAAGCGCCAGAACUACAGAAAUGUAGUUGACGAGGAGGAGGUUUAUCGAAUUUUCGGCGGAUGCCUCCAAA

How the values were obtained:
Conditions in all cases: with glucosamine-6-phosphate
[1] = variants of: B1; test: self-cleavage kobs at 160 uM GlcN6P; higher = faster cleavage; RNA array
Method in brief: (§1)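 Sequenced MiSeq chips were the platform: E. coli RNA polymerase transcribed barcoded ribozyme variants on them in situ, and a hybridised Cy3 probe tracked these at 37 °C. After glucosamine-6-phosphate (40 μM to 10 mM) in HEPES/KCl/Mg(OAc)2 buffer was flowed in, tiles were imaged over ~14 h. Signals normalised to baseline and to non-cleaving reference variants were reduced to per-tile medians and fit to one- or two-exponential decays to obtain kobs. kcat and KM were derived through weighted Michaelis–Menten fits across concentrations.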

[2] = variants of: B1; test: self-cleavage kobs at 640 uM GlcN6P; higher = faster cleavage; RNA array
Method in brief: as §1

[3] = variants of: B1; test: self-cleavage kobs at 2500 uM GlcN6P; higher = faster cleavage; RNA array
Method in brief: as §1

[4] = variants of: B1; test: self-cleavage kobs at 10000 uM GlcN6P; higher = faster cleavage; RNA array
Method in brief: as §1

| Variant | self-cleavage kobs at 160 uM GlcN6P [1] | self-cleavage kobs at 640 uM GlcN6P [2] | self-cleavage kobs at 2500 uM GlcN6P [3] | self-cleavage kobs at 10000 uM GlcN6P [4] |
| --- | --- | --- | --- | --- |
| U30C G40U U65G | < 1e-05 s⁻¹ |  |  |  |
| C11U A42G U54A | 3.87e-05 ± 1.6e-05 s⁻¹ | 0.000886 ± 0.00027 s⁻¹ |  |  |
| C67U C68U C71G | 7.37e-05 ± 2e-05 s⁻¹ |  |  |  |
| G37A C50G U69C | 5.92e-05 ± 1.9e-05 s⁻¹ | 7.07e-05 ± 2.7e-05 s⁻¹ |  |  |
| C58G C68G C71U | 9.65e-05 ± 2.3e-05 s⁻¹ |  |  |  |
| C8U A33C C71G | < 1e-05 s⁻¹ |  |  |  |
| C11A G43U U49C C61A G63C | < 1e-05 s⁻¹ |  | < 1e-05 s⁻¹ |  |
| G43C U56A | < 1e-05 s⁻¹ | < 1e-05 s⁻¹ | < 1e-05 s⁻¹ | < 1e-05 s⁻¹ |
| C10U U30C | < 1e-05 s⁻¹ |  | < 1e-05 s⁻¹ |  |
| C58G C67G | 5.68e-05 ± 1.1e-05 s⁻¹ | 0.000101 ± 1.3e-05 s⁻¹ | 5.23e-05 ± 1e-05 s⁻¹ | 1.83e-05 ± 8.7e-06 s⁻¹ |
| G29A C50A A53C | < 1e-05 s⁻¹ |  |  |  |
| G32U G38U G43U A53U | < 1e-05 s⁻¹ | < 1e-05 s⁻¹ |  |  |
| G37C U65A | < 1e-05 s⁻¹ | < 1e-05 s⁻¹ |  |  |
| G35C C70U | < 1e-05 s⁻¹ | < 1e-05 s⁻¹ |  | < 1e-05 s⁻¹ |
| A12U C58A G60U | < 1e-05 s⁻¹ | < 1e-05 s⁻¹ |  |  |
| C8G G9U G29C G32C A52C | < 1e-05 s⁻¹ |  | < 1e-05 s⁻¹ |  |
| C10U U31A U49G G62U C68U | < 1e-05 s⁻¹ |  |  |  |
| C8A A39G A52U | < 1e-05 s⁻¹ | < 1e-05 s⁻¹ | < 1e-05 s⁻¹ |  |
| G38U G41A C58A C61A | < 1e-05 s⁻¹ | < 1e-05 s⁻¹ |  |  |
| G32U G51U A53U G66U C71U | < 1e-05 s⁻¹ | < 1e-05 s⁻¹ | < 1e-05 s⁻¹ |  |
| G35C A64G | < 1e-05 s⁻¹ | < 1e-05 s⁻¹ | < 1e-05 s⁻¹ |  |
| C10A A12U U46A | < 1e-05 s⁻¹ | < 1e-05 s⁻¹ |  |  |
| G29A G32A G62U | < 1e-05 s⁻¹ |  |  |  |
| A6C C8G G66C | < 1e-05 s⁻¹ | < 1e-05 s⁻¹ |  |  |
| U56C C67G | < 1e-05 s⁻¹ | < 1e-05 s⁻¹ |  | < 1e-05 s⁻¹ |
| A14C A36C A52U | < 1e-05 s⁻¹ | < 1e-05 s⁻¹ |  | < 1e-05 s⁻¹ |

| Variant | self-cleavage kobs at 160 uM GlcN6P [1] | self-cleavage kobs at 640 uM GlcN6P [2] | self-cleavage kobs at 2500 uM GlcN6P [3] | self-cleavage kobs at 10000 uM GlcN6P [4] |
| --- | --- | --- | --- | --- |
| G7C C10G | < 1e-05 s⁻¹ | < 1e-05 s⁻¹ | < 1e-05 s⁻¹ |  |
| C16U C58U | < 1e-05 s⁻¹ |  | 2.45e-05 ± 6.4e-06 s⁻¹ | 9.48e-05 ± 8.5e-06 s⁻¹ |
| C8A C34U G40A A52U | < 1e-05 s⁻¹ | < 1e-05 s⁻¹ | < 1e-05 s⁻¹ | < 1e-05 s⁻¹ |
| A39G G41A G59U G60U | < 1e-05 s⁻¹ |  |  |  |
| G51U U69G C71A | 0.00015 ± 5.2e-05 s⁻¹ | 7.38e-05 ± 2.2e-05 s⁻¹ | 7.85e-05 ± 3.7e-05 s⁻¹ |  |
| A12U A33C A39G C50G A52G | < 1e-05 s⁻¹ | < 1e-05 s⁻¹ |  |  |
| G9U G29C | < 1e-05 s⁻¹ | < 1e-05 s⁻¹ | < 1e-05 s⁻¹ | < 1e-05 s⁻¹ |
| A6C C34U U56C | < 1e-05 s⁻¹ |  |  |  |
| C11G U46G G62A | < 1e-05 s⁻¹ | < 1e-05 s⁻¹ | < 1e-05 s⁻¹ | < 1e-05 s⁻¹ |
| G32C G35A | < 1e-05 s⁻¹ | < 1e-05 s⁻¹ | < 1e-05 s⁻¹ | < 1e-05 s⁻¹ |
| C11U U46G C50G | 5.55e-05 ± 1.9e-05 s⁻¹ | 6.4e-05 ± 1.8e-05 s⁻¹ |  |  |
| C8G G21U C34A A64G | < 1e-05 s⁻¹ | < 1e-05 s⁻¹ | < 1e-05 s⁻¹ |  |
| C34U G37A C50A A52G C70G | 0.000507 ± 0.00015 s⁻¹ | 0.000453 ± 0.00013 s⁻¹ | 0.000268 ± 9.2e-05 s⁻¹ |  |
| C8G C11G U54A | < 1e-05 s⁻¹ |  | < 1e-05 s⁻¹ |  |
| C8A A33U G51A | < 1e-05 s⁻¹ | < 1e-05 s⁻¹ |  |  |
| C11G A33U C34A G41A U54A | < 1e-05 s⁻¹ | < 1e-05 s⁻¹ | < 1e-05 s⁻¹ |  |
| G44U U65G C70G | < 1e-05 s⁻¹ |  | < 1e-05 s⁻¹ |  |
| G38C U55A | < 1e-05 s⁻¹ | < 1e-05 s⁻¹ |  |  |
| A12C U65G | 0.000115 ± 2.1e-05 s⁻¹ | 0.000543 ± 8.2e-05 s⁻¹ | 0.00157 ± 0.00024 s⁻¹ |  |
| A12U A14C U47A | 0.000117 ± 2.3e-05 s⁻¹ | 0.000593 ± 0.00011 s⁻¹ | 0.00107 ± 0.00025 s⁻¹ |  |
| G59U G60A | < 1e-05 s⁻¹ | < 1e-05 s⁻¹ |  |  |
| C11G G13U U45C | < 1e-05 s⁻¹ |  |  |  |
| G32C A33U A52G | < 1e-05 s⁻¹ | < 1e-05 s⁻¹ | < 1e-05 s⁻¹ |  |
| C8U C50G G63U | 0.000108 ± 2.8e-05 s⁻¹ |  | 5.35e-05 ± 2.6e-05 s⁻¹ |  |
| A36C U56A | < 1e-05 s⁻¹ | < 1e-05 s⁻¹ | < 1e-05 s⁻¹ |  |
| G9A C11U C16U G63A U65G C68G | 4.96e-05 ± 1.6e-05 s⁻¹ | 7.82e-05 ± 1.8e-05 s⁻¹ | 3.97e-05 ± 1.5e-05 s⁻¹ |  |
